From the supplement of paper PMC9732359
± gives the uncertainty stated by the source.

Test: protein stability index of a GFP-peptide fusion (yeast GPS) (PSI 1-4); higher = more stable; sorted into four equal gates, so the index is relative within each strain
How it was run: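 Each library plasmid carries Cherry plus GFP with a tiled 17-residue yeast protein peptide fused downstream, and the pooled library was carried in yeast. Mid-log cultures in leucine-free medium were sorted into four equal gates by GFP/Cherry ratio. Reads from Illumina sequencing of PCR-amplified plasmids from each gate were assigned to strains by barcodes. Per peptide, the protein stability index was computed as the summed products of gate read frequency and gate number.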

| Sequence | protein stability index (doa10∆) | protein stability index (pdr5∆) | protein stability index (san1∆) | protein stability index (ubr1∆) |
| --- | --- | --- | --- | --- |
| ELNVEKLNTFNLQTFTH [SRP72] | 2.48 ± 0.2 | 2.33 ± 0.15 | 1.9 ± 0.13 | 2.42 ± 0.15 |
| EKIKMKLKQGQKLFVQV [GAL11] | 2.85 ± 0.13 | 3.2 ± 0.09 | 3.28 ± 0.074 | 3.23 ± 0.14 |
| SKVVIDSIIDNIVKLCF [IRR1] | 2.75 ± 0.079 | 2.32 ± 0.034 | 2.2 ± 0.089 | 2.45 ± 0.026 |
| LKGRVVEVCLADLQGSE [RPS1A] | 2.65 ± 0.062 | 3.08 ± 0.071 | 2.51 ± 0.076 | 2.49 ± 0.055 |
| IRCHREDCDLVIMALML [POP5] | 2.45 ± 0.053 | 2.65 ± 0.064 | 2.01 ± 0.091 | 2.81 ± 0.047 |
| VLNEDDLAFGGEANKHH [RPN5] | 3.25 ± 0.09 | 3.13 ± 0.089 | 3.25 ± 0.057 | 3.48 ± 0.12 |
| KSGRINGFHGRLGDLGV [SMC4] | 3.41 ± 0.11 | 3.43 ± 0.093 | 3.13 ± 0.1 | 3.31 ± 0.045 |
| KRVDFSGRTVISPDPNL [RPO31] | 2.44 ± 0.1 | 2.65 ± 0.11 | 3.2 ± 0.14 | 2.83 ± 0.086 |
| KHWGGGILGNKAQAKMD [RPL8A] | 3.39 ± 0.13 | 3.47 ± 0.11 | 3.53 ± 0.066 | 3.35 ± 0.087 |
| IEVTIGIDQYSFNVKEN [AAR2] | 2.67 ± 0.053 | 2.75 ± 0.05 | 2.58 ± 0.047 | 2.76 ± 0.056 |
| VFLKHSLSIKLATLHYQ [RPN6] | 2.22 ± 0.059 | 2.57 ± 0.067 | 1.71 ± 0.11 | 3.08 ± 0.055 |
| PHLFVNGDLTVSLCAKN [SSN2] | 1.95 ± 0.079 | 2.12 ± 0.081 | 2.25 ± 0.18 | 1.87 ± 0.074 |
| EDEDDGESEKSSDVDMD [RPC53] | 3.28 ± 0.11 | 3.66 ± 0.14 | 3.29 ± 0.19 | 3.32 ± 0.094 |
| RDMTYSAPIYVDIEYTR [RET1] | 2.17 ± 0.092 | 1.98 ± 0.083 | 1.79 ± 0.14 | 1.81 ± 0.069 |
| AELKLAGEFGLKNKREI [RPS9B] | 3.08 ± 0.11 | 3.21 ± 0.15 | 3.2 ± 0.18 | 3.21 ± 0.12 |
| NVEMEEDVLVNQILMSV [RPL1A] | 2.83 ± 0.13 | 3.14 ± 0.1 | 1.61 ± 0.15 | 2.92 ± 0.083 |
| VSKQLGNGLVDENKVEA [YAR002W/NUP60] | 3.17 ± 0.082 | 3.02 ± 0.068 | 3.38 ± 0.048 | 3.21 ± 0.049 |
| DINVESLTQSVCDLALR [PUP2] | 1.52 ± 0.1 | 1.91 ± 0.067 | 1.67 ± 0.18 | 1.93 ± 0.037 |
| QNDELTMGMRALLKLSV [DIS3] | 2.01 ± 0.094 | 2.49 ± 0.078 | 1.55 ± 0.067 | 2.7 ± 0.066 |
| PIFSFGKQEENGDEGDD [YOR098C/NUP1] | 3.63 ± 0.14 | 3.65 ± 0.17 | 3.55 ± 0.096 | 3.32 ± 0.14 |
| KNEKLKFQETLLRQKIE [ISW2] | 1.36 ± 0.11 | 1.37 ± 0.13 | 1.16 ± 0.15 | 1.15 ± 0.071 |
| YVIHGIELLSDLINILE [LIN1] | – | 2.74 ± 0.25 | – | 2.43 ± 0.14 |

| Sequence | protein stability index (doa10∆) | protein stability index (pdr5∆) | protein stability index (san1∆) | protein stability index (ubr1∆) |
| --- | --- | --- | --- | --- |
| ADKRGVLTGGYLDQHKR [SMC3] | 2.46 ± 0.11 | 2.54 ± 0.1 | 2.72 ± 0.074 | 2.94 ± 0.052 |
| IYDSEDPQQVFDERIKF [RPN3] | 3.05 ± 0.11 | 3.09 ± 0.089 | 3.23 ± 0.08 | 2.89 ± 0.06 |
| DLPETGFFENIETEFLL [IRR1] | 3.13 ± 0.075 | 3.18 ± 0.1 | 3.22 ± 0.047 | 3.13 ± 0.066 |
| KIAERSLLLKNYLNDMH [SKP1] | 2.55 ± 0.12 | 2.54 ± 0.07 | 1.81 ± 0.17 | 1.78 ± 0.067 |
| LKNTKYFQQTTIDWVEA [PRP8] | 2.93 ± 0.078 | 2.96 ± 0.08 | 2.83 ± 0.054 | 2.75 ± 0.072 |
| SRSNFQGKHTKFENDEL [LRP1] | 3.28 ± 0.091 | 2.99 ± 0.085 | 3.02 ± 0.06 | 3.22 ± 0.064 |
| NVTLVNGKRRMNPGPSV [RPS30A] | 2.37 ± 0.059 | 2.79 ± 0.035 | 2.67 ± 0.055 | 2.65 ± 0.039 |
| KLLSLLRSKTSAGRIES [SIR4] | 2.11 ± 0.082 | 2.17 ± 0.087 | 2.42 ± 0.15 | 2.36 ± 0.12 |
| KIADLVRIPPDQFHRDT [RPC25] | 2.18 ± 0.063 | 2.52 ± 0.062 | 2.45 ± 0.085 | 2.93 ± 0.088 |
| NRTLYELADLPKLKRIG [GRR1] | 2.88 ± 0.049 | 2.87 ± 0.037 | 2.8 ± 0.042 | 3.02 ± 0.042 |
| KVKKPLKYLSVEEVIKL [PRE7] | 2.54 ± 0.084 | 2.63 ± 0.054 | 2.75 ± 0.083 | 2.23 ± 0.067 |
| YYNEEGIHILLYSGLII [RPC82] | 2.01 ± 0.1 | 2.04 ± 0.094 | 2.14 ± 0.18 | 2.28 ± 0.037 |
| LEGITTTIDSLNAELES [SMC3] | 1.57 ± 0.088 | 1.77 ± 0.15 | 2.27 ± 0.17 | 3.14 ± 0.1 |
| WDLVDERTKQRTAKAYL [PRP8] | 3.18 ± 0.12 | 3.6 ± 0.23 | 3.09 ± 0.074 | 3.1 ± 0.1 |
| DIFVYLTYDKDLTNNPQ [MTR3] | 2.1 ± 0.05 | 1.98 ± 0.073 | 2.35 ± 0.1 | 2.28 ± 0.065 |
| ELDQFWQEYSSVFKGGM [SRP14] | 2.68 ± 0.073 | 2.66 ± 0.079 | 2.86 ± 0.098 | 3.13 ± 0.081 |
| AFSSVEHIIRDVHNGYI [COB] | 3.16 ± 0.23 | 3 ± 0.26 | 3.37 ± 0.24 | 2.99 ± 0.16 |
| STKIIMLLLNDSVENSS [SRB8] | 2.63 ± 0.074 | 2.15 ± 0.07 | 2.6 ± 0.077 | 2.74 ± 0.088 |
| PSQGVHYKVPTDTSTTA [MED6] | 2.34 ± 0.043 | 2.84 ± 0.046 | 2.37 ± 0.06 | 2.76 ± 0.037 |
| MKQYRDFLGVASTGSGK [PRP28] | 2.77 ± 0.1 | 2.72 ± 0.12 | 2.88 ± 0.061 | 2.93 ± 0.043 |
| LSDVAFYVQDVYKDNLS [RPO31] | 1.8 ± 0.12 | 1.7 ± 0.12 | – | 1.22 ± 0.14 |
| DLIETSFTCFAQFVSNK [NUT1] | 2.64 ± 0.093 | 2.01 ± 0.075 | 1.92 ± 0.11 | 2.77 ± 0.076 |
